In one assay the target is T1, Mouse blade 3.
T1 construct: human/mouse chimera on transfected HEK293 cells; also called Mouse blade 3-IPT4
T1 MET ECD-SV5-GPI fusion: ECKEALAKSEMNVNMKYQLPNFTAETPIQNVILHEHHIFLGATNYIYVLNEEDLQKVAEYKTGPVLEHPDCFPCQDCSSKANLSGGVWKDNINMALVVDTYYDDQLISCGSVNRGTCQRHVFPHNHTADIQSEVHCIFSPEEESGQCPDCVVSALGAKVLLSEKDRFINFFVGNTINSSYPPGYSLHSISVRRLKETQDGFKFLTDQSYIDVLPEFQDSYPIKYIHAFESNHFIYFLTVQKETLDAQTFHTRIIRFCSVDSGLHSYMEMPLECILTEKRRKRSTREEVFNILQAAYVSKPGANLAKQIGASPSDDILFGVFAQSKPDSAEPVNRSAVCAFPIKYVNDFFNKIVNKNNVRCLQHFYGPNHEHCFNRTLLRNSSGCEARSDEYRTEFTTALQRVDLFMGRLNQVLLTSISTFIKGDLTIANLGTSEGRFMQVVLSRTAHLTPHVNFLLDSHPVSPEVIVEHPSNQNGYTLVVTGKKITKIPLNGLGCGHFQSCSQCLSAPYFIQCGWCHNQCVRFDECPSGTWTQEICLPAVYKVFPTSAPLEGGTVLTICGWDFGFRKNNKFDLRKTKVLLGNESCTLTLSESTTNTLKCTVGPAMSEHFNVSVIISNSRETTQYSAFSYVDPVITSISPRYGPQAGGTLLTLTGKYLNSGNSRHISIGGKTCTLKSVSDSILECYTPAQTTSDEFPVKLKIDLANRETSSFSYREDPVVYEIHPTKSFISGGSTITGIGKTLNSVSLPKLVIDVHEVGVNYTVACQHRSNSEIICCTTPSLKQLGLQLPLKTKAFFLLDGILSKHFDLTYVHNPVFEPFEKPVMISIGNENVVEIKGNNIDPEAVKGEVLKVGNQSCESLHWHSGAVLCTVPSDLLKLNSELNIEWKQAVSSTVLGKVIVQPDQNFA
Put plainly: flow cytometry on transfected HEK293 cells.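 Further: antibodies applied at 50 µg/ml, binding called specific when fluorescence exceeds the mean signal on a negative control chicken or mouse MET construct plus four SD.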 On the technique in general: A flow cytometer gives signals particle by particle.

A further assay deals with T2, Mouse Blade 1-2.
T2 construct: human/mouse chimera on transfected HEK293 cells; also called AA 25-162
T2 MET ECD-SV5-GPI fusion: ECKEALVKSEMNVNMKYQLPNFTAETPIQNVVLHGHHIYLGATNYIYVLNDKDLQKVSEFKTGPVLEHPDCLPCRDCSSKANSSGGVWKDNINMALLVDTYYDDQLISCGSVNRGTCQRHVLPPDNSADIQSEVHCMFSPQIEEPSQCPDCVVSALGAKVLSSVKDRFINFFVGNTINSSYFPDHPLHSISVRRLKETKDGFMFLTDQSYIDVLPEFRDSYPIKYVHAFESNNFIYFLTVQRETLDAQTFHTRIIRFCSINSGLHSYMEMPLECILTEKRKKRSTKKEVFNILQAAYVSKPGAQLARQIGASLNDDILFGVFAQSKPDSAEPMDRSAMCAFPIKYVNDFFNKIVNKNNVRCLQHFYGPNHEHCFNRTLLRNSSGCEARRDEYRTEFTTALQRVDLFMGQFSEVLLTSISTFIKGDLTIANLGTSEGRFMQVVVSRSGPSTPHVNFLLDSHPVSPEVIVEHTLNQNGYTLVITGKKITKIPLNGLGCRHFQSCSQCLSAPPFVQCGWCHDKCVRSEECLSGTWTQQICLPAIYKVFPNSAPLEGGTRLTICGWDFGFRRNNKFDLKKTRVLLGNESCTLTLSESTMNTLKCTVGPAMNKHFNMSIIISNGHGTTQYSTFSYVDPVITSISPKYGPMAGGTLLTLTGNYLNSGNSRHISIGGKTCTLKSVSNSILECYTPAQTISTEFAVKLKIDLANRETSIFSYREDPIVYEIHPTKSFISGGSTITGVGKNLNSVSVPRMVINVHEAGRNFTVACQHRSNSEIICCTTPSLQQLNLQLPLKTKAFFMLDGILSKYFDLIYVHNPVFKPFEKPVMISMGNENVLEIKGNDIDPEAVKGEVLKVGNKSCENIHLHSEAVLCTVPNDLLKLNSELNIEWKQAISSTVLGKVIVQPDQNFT
Put plainly: flow cytometry on transfected HEK293 cells.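 Further: antibodies applied at 50 µg/ml, binding called specific when fluorescence exceeds the mean signal on a negative control chicken or mouse MET construct plus four SD.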

Experimental for Mouse Blade 1-2: (§1) Cut-off values defined as the average fluorescence signal of all antibodies tested at 50 μg/ml to the negative control chicken or mouse MET construct+four standard deviations were employed to discriminate background binding from specific binding for the domain exchange or blade exchange constructs.
Experimental for Mouse blade 3: as §1

B1: humanized antibody 9006 (antibody, human IgG1, kappa, V domains shown)
VH: QVQLVQSGSELKKPGASVKVSCKASGYTFTNFRMNWVKQAPGQGLKWMGWINTYTGEPTYVDDLKGRFVFSLDTSVSTAYLQISSLKAEDTAVYYCARKGIARAMDYWGQGTTVTVSS
VL: DIVMTQSPDSLAVSLGERATINCKSSQSLLDSGNQKNYLAWYQQKPGQPPKLLIFGASTRESGVPDRFSGSGSGTDFTLTISSLQAEDVAVYYCQNDHSYPYTFGQGTKLEIKR
notes: also called Hu9006; hu9006
Regarding B1, in the assay with Mouse blade 3, the binding result is “no binding (tested: 50 µg/ml)”.

B2: humanized antibody 9338 (antibody, human IgG1, kappa, V domains shown)
VH: QVQLVQSGAEVKKPGSSVKVSCKASGYTFTSYWMHWVRQAPGQGLEWMGYINPSSGHIENNQKFKDRVTITADKSTSTAYMELSSLRSEDTAVYYCARGRFAYWGQGTLVTVSS
VL: EIVLTQSPATLSLSPGERATLSCSASSSVSSGYLYWYQQKPGQAPRLLIYSTSNLASGIPARFSGSGSGTDFTLTISSLEPEDFAVYYCHQWSSYPFTFGSGTKLEIKR
notes: also called Hu9338; hu9338
As to B2, the binding result with Mouse Blade 1-2 was “no binding (tested: 50 µg/ml)”.

The values are drawn from patent US20180327500A1 (SYMPHOGEN A S, published 2018).
